This note sets out measurements from patent publication US20210347882A1 (Johns Hopkins, published 2021).

One assay addresses T1, human Resistin (human, UniProt Q9HD89 19-108).
T1 construct: The sandwich ELISA used the R&D kit standard; also called hResistin; huRes
T1 sequence (looked up): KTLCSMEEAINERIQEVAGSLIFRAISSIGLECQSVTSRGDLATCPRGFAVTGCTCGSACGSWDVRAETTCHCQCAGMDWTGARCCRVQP
The assay is described as follows: QC ELISA, hResistin coated 5 µg/well, IgG supernatant, FITC-goat anti-human IgG. The procedure: (§1) As a result, 4 IgGs (Clones 1, 2, 13 and 18) bind to two targets positively. hRELMβ: 0.5 μg/well; hResistin: 5 μg/well; secondary antibody: FITC-goat anti-human IgG pAb.

For assay [1], the target named is T2, human Resistin-Like Molecule Beta (human, UniProt Q9BQ08 24-111, limits assumed).
T2 construct: also called hRELMβ; RELMβ
T2 sequence (looked up): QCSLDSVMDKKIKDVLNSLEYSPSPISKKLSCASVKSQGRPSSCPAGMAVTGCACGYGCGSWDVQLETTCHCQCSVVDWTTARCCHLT
The assay is described as follows: QC ELISA, hRELMβ coated 0.5 µg/well, IgG supernatant, FITC-goat anti-human IgG. The procedure:
as §1

B1: Clone 1 rIgG (antibody, V domains shown)
VH: EVQLLESGGGLVQPGGSLRLSCAASGFTFSSYAMSWVRQAPGKGLEWVSSISQRGRKTLYADSVKGRFTISRDNSKNTLYLQMNSLRAEDTAVYYCAKGLRRFDYWGQGTLVTVSS
VL: DIQMTQSPSSLSASVGDRVTITCRASQSISSYLNWYQQKPGKAPKLLIYMASHLQSGVPSRFSGSGSGTDFTLTISSLQPEDFATYYCQQPRSTPLTFGQGTKVEIKR
notes: Fully human IgG1 converted from scFv, tested as supernatant of expressing cells; Possibly the same clone as Ab1
With B1, the binding result (with human Resistin; in assay [1]) was “binds” throughout.

B2: Clone 18 rIgG (antibody, V domains shown)
VH: EVQLLESGGGLVQPGGSLRLSCAASGFTFSSYAMSWVRQAPGKGLEWVSTIHKTGSPTYYADSVKGRFTISRDNSKNTLYLQMNSLRAEDTAVYYCAKSLKYFDYWGQGTLVTVSS
VL: DIQMTQSPSSLSASVGDRVTITCRASQSISSYLNWYQQKPGKAPKLLIYRASHLQSGVPSRFSGSGSGTDFTLTISSLQPEDFATYYCQQPRSLPATFGQGTKVEIKR
notes: Fully human IgG1 converted from scFv, tested as supernatant of expressing cells
Regarding B2, the binding result (in the assay with human Resistin; in assay [1]) was “binds” throughout.

B3: Clone 13 rIgG (antibody, V domains shown)
VH: EVQLLESGGGLVQPGGSLRLSCAASGFTFSSYAMSWVRQAPGKGLEWVSSIYPQGLRTYYADSVKGRFTISRDNSKNTLYLQMNSLRAEDTAVYYCAKNLAKFDYWGQGTLVTVSS
VL: DIQMTQSPSSLSASVGDRVTITCRASQSISSYLNWYQQKPGKAPKLLIYRASTLQSGVPSRFSGSGSGTDFTLTISSLQPEDFATYYCQQPRALPGTFGQGTKVEIKR
notes: Fully human IgG1 converted from scFv, tested as supernatant of expressing cells; Possibly the same clone as Ab13
As to B3, the binding result (in the assay with human Resistin; in assay [1]) was “binds” in each case.

B4: Clone 2 rIgG (antibody, V domains shown)
VH: EVQLLESGGGLVQPGGSLRLSCAASGFTFSSYAMSWVRQAPGKGLEWVSTITTTGTATWYADSVKGRFTISRDNSKNTLYLQMNSLRAEDTAVYYCAKTLQRFDYWGQGTLVTVSS
VL: DIQMTQSPSSLSASVGDRVTITCRASQSISSYLNWYQQKPGKAPKLLIYEASVLQSGVPSRFSGSGSGTDFTLTISSLQPEDFATYYCQQPRSLPMTFGQGTKVEIKR
notes: as for B2
Regarding B4, the binding result (with human Resistin; in assay [1]) was “binds” each time.
